Laboratory results published in paper PMC8209278 (iScience, 2021).

Columns and labels:
[1] = biological target: Purified recombinant viral NP protein (influenza virus A/Puerto Rico/8/34 …, UniProt P03466 1-498); assay: pull-down
[2] = biological target: Purified recombinant viral PB2 protein (influenza virus A/Puerto Rico/8/34 …, UniProt P03428 1-759); assay: pull-down

Sequence of Purified recombinant viral NP protein (P03466 whole entry): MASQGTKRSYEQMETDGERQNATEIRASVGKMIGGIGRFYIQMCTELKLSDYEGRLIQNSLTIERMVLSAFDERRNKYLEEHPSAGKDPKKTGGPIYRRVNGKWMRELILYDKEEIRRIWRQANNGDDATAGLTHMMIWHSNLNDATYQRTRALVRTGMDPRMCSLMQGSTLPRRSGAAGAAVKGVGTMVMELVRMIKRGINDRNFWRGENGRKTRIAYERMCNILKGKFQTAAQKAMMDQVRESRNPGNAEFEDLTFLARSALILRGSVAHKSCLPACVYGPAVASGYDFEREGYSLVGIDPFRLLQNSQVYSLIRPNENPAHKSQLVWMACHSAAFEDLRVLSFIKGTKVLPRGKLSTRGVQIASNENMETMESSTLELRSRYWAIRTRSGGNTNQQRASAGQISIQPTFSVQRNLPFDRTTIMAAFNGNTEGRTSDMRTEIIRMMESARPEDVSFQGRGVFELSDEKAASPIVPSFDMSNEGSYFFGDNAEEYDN

B1: GST-fused full length Suv4-20h2 (enzyme)
chain: not shown
binding result [1]: binds
binding result [2]: binds
